Literature values in publication PMC10876879, “Sustained silencing peanut allergy by xanthopurpurin is associated with suppression of peripheral and bone marrow IgE-producing B cell” (Frontiers in Immunology, 2024).

System: IgE
Design: method as in PMID 15025403, PMID 12637608
Conditions: double-blind, randomized trial, 2003

B1: TNX-901: anti-IgE antibody (antibody, chains of the INN, looked up, V domains shown)
VH: QVQLVQSGAEVKKPGASVKVSCKASGYTFSMYWLEWVRQAPGHGLEWVGEISPGTFTTNYNEKFKARATFTADTSTNTAYMELSSLRSEDTAVYYCARFSHFSGSNYDYFDYWGQGTLVTVSS
VL: DILLTQSPGTLSLSPGERATLSCRASQSIGTNIHWYQQKPGQAPRLLIKYASESISGIPSRFSGSGSGTDFTLTISRLEPEDFAMYYCQQSDSWPTTFGQGTKVEIK
- Threshold of the sensitivity of patients to peanut: significantly increased
